Laboratory results published in IntAct's records for PubMed 16642037.

B1: RAC-alpha serine/threonine-protein kinase (Rattus norvegicus (Rat)), P47196 (parent)
chain: MNDVAIVKEGWLHKRGEYIKTWRPRYFLLKNDGTFIGYKERPQDVEQRESPLNNFSVAQCQLMKTERPRPNTFIIRCLQWTTVIERTFHVETPEEREEWTTAIQTVADGLKRQEEETMDFRSGSPSDNSGAEEMEVALAKPKHRVTMNEFEYLKLLGKGTFGKVILVKEKATGRYYAMKILKKEVIVAKDEVAHTLTENRVLQNSRHPFLTALKYSFQTHDRLCFVMEYANGGELFFHLSRERVFSEDRARFYGAEIVSALDYLHSEKNVVYRDLKLENLMLDKDGHIKITDFGLCKEGIKDGATMKTFCGTPEYLAPEVLEDNDYGRAVDWWGLGVVMYEMMCGRLPFYNQDHEKLFELILMEEIRFPRTLGPEAKSLLSGLLKKDPTQRLGGGSEDAKEIMQHRFFANIVWQDVYEKKLSPPFKPQVTSETDTRYFDEEFTAQMITITPPDQDDSMECVDSERRPHFPQFSYSASGTA

Variants of: B1
Conditions: with nfkb1_rat Nfkb1, Q63369
Chain of nfkb1_rat Nfkb1, Q63369 (Q63369 whole entry): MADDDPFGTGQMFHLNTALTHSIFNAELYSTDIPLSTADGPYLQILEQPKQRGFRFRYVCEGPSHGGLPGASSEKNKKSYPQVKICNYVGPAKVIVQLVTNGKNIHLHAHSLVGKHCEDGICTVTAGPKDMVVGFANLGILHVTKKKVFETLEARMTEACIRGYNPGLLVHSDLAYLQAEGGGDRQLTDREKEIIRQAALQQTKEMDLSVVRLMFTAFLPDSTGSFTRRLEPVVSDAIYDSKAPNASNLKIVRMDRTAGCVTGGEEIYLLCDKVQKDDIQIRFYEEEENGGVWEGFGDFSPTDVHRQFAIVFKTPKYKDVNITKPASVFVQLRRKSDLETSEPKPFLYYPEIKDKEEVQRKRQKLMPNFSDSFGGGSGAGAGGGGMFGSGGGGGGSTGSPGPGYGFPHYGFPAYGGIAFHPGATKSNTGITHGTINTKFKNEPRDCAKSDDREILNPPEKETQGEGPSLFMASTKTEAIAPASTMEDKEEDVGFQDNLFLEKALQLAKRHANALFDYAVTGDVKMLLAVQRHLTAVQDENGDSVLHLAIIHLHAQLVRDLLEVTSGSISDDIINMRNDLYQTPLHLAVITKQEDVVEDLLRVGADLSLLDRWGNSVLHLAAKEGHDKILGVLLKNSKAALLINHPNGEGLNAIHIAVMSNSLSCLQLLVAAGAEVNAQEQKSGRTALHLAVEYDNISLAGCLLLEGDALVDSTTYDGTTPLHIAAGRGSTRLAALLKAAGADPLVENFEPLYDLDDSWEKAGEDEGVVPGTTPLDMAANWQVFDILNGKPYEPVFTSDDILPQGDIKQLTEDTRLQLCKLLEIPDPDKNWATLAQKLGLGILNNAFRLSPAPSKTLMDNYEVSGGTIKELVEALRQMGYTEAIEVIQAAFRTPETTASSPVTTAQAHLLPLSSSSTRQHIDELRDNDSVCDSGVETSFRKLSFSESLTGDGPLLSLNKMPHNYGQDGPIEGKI

| effect of a mutation on the interaction | Variant |
| --- | --- |
| increasing interaction | MNDVAIVKEGWLHKRGEYIKTWRPRYFLLKNDGTFIGYKERPQDVEQRESPLNNFSVAQCQLMKTERPRPNTFIIRCLQWTTVIERTFHVETPEEREEWTTAIQTVADGLKRQEEETMDFRSGSPSDNSGAEEMEVALAKPKHRVTMNEFEYLKLLGKGTFGKVILVKEKATGRYYAMAILKKEVIVAKDEVAHTLTENRVLQNSRHPFLTALKYSFQTHDRLCFVMEYANGGELFFHLSRERVFSEDRARFYGAEIVSALDYLHSEKNVVYRDLKLENLMLDKDGHIKITDFGLCKEGIKDGATMKTFCGTPEYLAPEVLEDNDYGRAVDWWGLGVVMYEMMCGRLPFYNQDHEKLFELILMEEIRFPRTLGPEAKSLLSGLLKKDPTQRLGGGSEDAKEIMQHRFFANIVWQDVYEKKLSPPFKPQVTSETDTRYFDEEFTAQMITITPPDQDDSMECVDSERRPHFPQFSYSASGTA [K179A] |
| increasing interaction | MNDVAIVKEGWLHKRGEYIKTWRPRYFLLKNDGTFIGYKERPQDVEQRESPLNNFSVAQCQLMKTERPRPNTFIIRCLQWTTVIERTFHVETPEEREEWTTAIQTVADGLKRQEEETMDFRSGSPSDNSGAEEMEVALAKPKHRVTMNEFEYLKLLGKGTFGKVILVKEKATGRYYAMKILKKEVIVAKDEVAHTLTENRVLQNSRHPFLTALKYSFQTHDRLCFVMEYANGGELFFHLSRERVFSEDRARFYGAEIVSALDYLHSEKNVVYRDLKLENLMLDKDGHIKITDFGLCKEGIKDGATMKDFCGTPEYLAPEVLEDNDYGRAVDWWGLGVVMYEMMCGRLPFYNQDHEKLFELILMEEIRFPRTLGPEAKSLLSGLLKKDPTQRLGGGSEDAKEIMQHRFFANIVWQDVYEKKLSPPFKPQVTSETDTRYFDEEFTAQMITITPPDQDDSMECVDSERRPHFPQFSYSASGTA [T308D] |
| increasing interaction | MNDVAIVKEGWLHKRGEYIKTWRPRYFLLKNDGTFIGYKERPQDVEQRESPLNNFSVAQCQLMKTERPRPNTFIIRCLQWTTVIERTFHVETPEEREEWTTAIQTVADGLKRQEEETMDFRSGSPSDNSGAEEMEVALAKPKHRVTMNEFEYLKLLGKGTFGKVILVKEKATGRYYAMKILKKEVIVAKDEVAHTLTENRVLQNSRHPFLTALKYSFQTHDRLCFVMEYANGGELFFHLSRERVFSEDRARFYGAEIVSALDYLHSEKNVVYRDLKLENLMLDKDGHIKITDFGLCKEGIKDGATMKTFCGTPEYLAPEVLEDNDYGRAVDWWGLGVVMYEMMCGRLPFYNQDHEKLFELILMEEIRFPRTLGPEAKSLLSGLLKKDPTQRLGGGSEDAKEIMQHRFFANIVWQDVYEKKLSPPFKPQVTSETDTRYFDEEFTAQMITITPPDQDDSMECVDSERRPHFPQFDYSASGTA [S473D] |
